US20140087995A1 (published 2014)
Numbered stars: 1 amine (or outer) side, 2 acyl side, 3 side chain; on linkers, the order of the positions; unused ones are H or OH. Bridge positions count the residues as written; N and C are the ends. Side chains are listed from the residue outwards. Ends that are not written are not given here. * marks the point of attachment. C20 diacid = O=C(O)CCCCCCCCCCCCCCCCCCC(=O)*; γGlu = O=C(O)[C@H](CCC(=O)[*:2])N[*:1]

T1: human amylin receptor (amylin 3(a) receptor: human calcitonin receptor plus RAMP-3) (human, UniProt P30988 25-474; O60896 24-148)
T1 construct: whole, on cells; functional assay (II)a used the whole cells; also called hAmylin-R; hAmylinR
T1 sequence (looked up) 1: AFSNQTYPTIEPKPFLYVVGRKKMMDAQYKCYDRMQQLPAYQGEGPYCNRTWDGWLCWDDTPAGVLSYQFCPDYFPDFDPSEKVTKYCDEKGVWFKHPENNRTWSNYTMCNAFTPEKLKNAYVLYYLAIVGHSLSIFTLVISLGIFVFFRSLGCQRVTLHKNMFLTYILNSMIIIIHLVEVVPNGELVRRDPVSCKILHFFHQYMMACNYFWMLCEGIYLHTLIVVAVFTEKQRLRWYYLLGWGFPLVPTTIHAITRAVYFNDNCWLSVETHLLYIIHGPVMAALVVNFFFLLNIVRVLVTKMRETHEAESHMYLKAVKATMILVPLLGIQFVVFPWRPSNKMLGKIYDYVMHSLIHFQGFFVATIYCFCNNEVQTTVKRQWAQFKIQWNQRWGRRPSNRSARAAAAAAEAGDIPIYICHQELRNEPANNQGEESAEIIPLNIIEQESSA
T1 sequence (looked up) 2: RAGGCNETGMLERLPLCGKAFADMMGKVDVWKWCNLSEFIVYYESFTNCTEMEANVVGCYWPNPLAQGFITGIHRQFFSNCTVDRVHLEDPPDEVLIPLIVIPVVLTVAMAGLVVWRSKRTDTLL

T2: human calcitonin receptor (human, UniProt P30988 25-474)
T2 sequence (looked up): T1 sequence (looked up) 1

B1: N^ε1-[(4S)-4-carboxy-4-[[(4S)-4-carboxy-4-(19-carboxynonadecanoylamino)butanoyl]amino]butanoyl]-[Glu14,Arg17,Pro21,Pro27,Pro34,Glu35]-h-amylin (peptide)
peptide: K([γGlu-γGlu-C20 diacid])CNTATCATQRLAEFLRHSSPNFGAIPSSTNVGPETY-NH2
modifications: disulfide 2-7; N-terminus assumed
SMILES: CC[C@H](C)[C@H](NC(=O)[C@H](C)NC(=O)CNC(=O)[C@H](Cc1ccccc1)NC(=O)[C@H](CC(N)=O)NC(=O)[C@@H]1CCCN1C(=O)[C@H](CO)NC(=O)[C@H](CO)NC(=O)[C@H](Cc1c[nH]cn1)NC(=O)[C@H](CCCNC(=N)N)NC(=O)[C@H](CC(C)C)NC(=O)[C@H](Cc1ccccc1)NC(=O)[C@H](CCC(=O)O)NC(=O)[C@H](C)NC(=O)[C@H](CC(C)C)NC(=O)[C@H](CCCNC(=N)N)NC(=O)[C@H](CCC(N)=O)NC(=O)[C@@H](NC(=O)[C@H](C)NC(=O)[C@@H]1CSSC[C@H](NC(=O)[C@@H](N)CCCCNC(=O)CC[C@H](NC(=O)CC[C@H](NC(=O)CCCCCCCCCCCCCCCCCCC(=O)O)C(=O)O)C(=O)O)C(=O)N[C@@H](CC(N)=O)C(=O)N[C@@H]([C@@H](C)O)C(=O)N[C@@H](C)C(=O)N[C@@H]([C@@H](C)O)C(=O)N1)[C@@H](C)O)C(=O)N1CCC[C@H]1C(=O)N[C@@H](CO)C(=O)N[C@@H](CO)C(=O)N[C@H](C(=O)N[C@@H](CC(N)=O)C(=O)N[C@H](C(=O)NCC(=O)N1CCC[C@H]1C(=O)N[C@@H](CCC(=O)O)C(=O)N[C@H](C(=O)N[C@@H](Cc1ccc(O)cc1)C(N)=O)[C@@H](C)O)C(C)C)[C@@H](C)O
B2: N^ε1-[(4S)-4-carboxy-4-[[(4S)-4-carboxy-4-(19-carboxynonadecanoylamino)butanoyl]amino]butanoyl]-[Glu14,Arg17,Pro23,Pro34,Glu35]-h-amylin (peptide)
peptide: K([γGlu-γGlu-C20 diacid])CNTATCATQRLAEFLRHSSNNPGAILSSTNVGPETY-NH2
modifications: disulfide 2-7; N-terminus assumed
SMILES: CC[C@H](C)[C@H](NC(=O)[C@H](C)NC(=O)CNC(=O)[C@@H]1CCCN1C(=O)[C@H](CC(N)=O)NC(=O)[C@H](CC(N)=O)NC(=O)[C@H](CO)NC(=O)[C@H](CO)NC(=O)[C@H](Cc1c[nH]cn1)NC(=O)[C@H](CCCNC(=N)N)NC(=O)[C@H](CC(C)C)NC(=O)[C@H](Cc1ccccc1)NC(=O)[C@H](CCC(=O)O)NC(=O)[C@H](C)NC(=O)[C@H](CC(C)C)NC(=O)[C@H](CCCNC(=N)N)NC(=O)[C@H](CCC(N)=O)NC(=O)[C@@H](NC(=O)[C@H](C)NC(=O)[C@@H]1CSSC[C@H](NC(=O)[C@@H](N)CCCCNC(=O)CC[C@H](NC(=O)CC[C@H](NC(=O)CCCCCCCCCCCCCCCCCCC(=O)O)C(=O)O)C(=O)O)C(=O)N[C@@H](CC(N)=O)C(=O)N[C@@H]([C@@H](C)O)C(=O)N[C@@H](C)C(=O)N[C@@H]([C@@H](C)O)C(=O)N1)[C@@H](C)O)C(=O)N[C@@H](CC(C)C)C(=O)N[C@@H](CO)C(=O)N[C@@H](CO)C(=O)N[C@H](C(=O)N[C@@H](CC(N)=O)C(=O)N[C@H](C(=O)NCC(=O)N1CCC[C@H]1C(=O)N[C@@H](CCC(=O)O)C(=O)N[C@H](C(=O)N[C@@H](Cc1ccc(O)cc1)C(N)=O)[C@@H](C)O)C(C)C)[C@@H](C)O

What follows are binders tested against T1, human amylin receptor (amylin 3(a) …) (assay: SPA competition binding, displacement of 125I-rat amylin, membranes of BHK amylin 3(a)/CRE-luc cells).
Summary of the method: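 SPA beads with BHK Amylin 3(a)/CRE-luc cell membranes (35 ng/μL final) in 50 mM Hepes pH 7.4, 1 mM CaCl2, 5 mM MgCl₂, 0.1% OA, 0.02% Tween20.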

IC50 [pM] | Binder
121 | B1
377 | K([γGlu-γGlu-C20 diacid])CNTATCATQRLAEFLRHSSPNFGAIPSSTNVGPHTY-NH2 (disulfide 2-7 (inferred))
1190 | B2
69 | K([γGlu-γGlu-C20 diacid])CNTATCATQRLAEFLRHSSPNFGAILSSTPVGPETY-NH2 (disulfide 2-7 (inferred))

Each binder was assayed against T1, human amylin receptor (amylin 3(a) …) (assay: cell-based or functional assay).

hAmylin-R funct. EC50 (pM) | Ratio hCT/hAmylin funct. | Binder
225 | – | B1
172 | – | K([γGlu-γGlu-C20 diacid])CNTATCATQRLAEFLRHSSPNFGAIPSSTNVGPHTY-NH2 (disulfide 2-7 (inferred))
5170 | – | B2
222 | 5.8 | K([γGlu-γGlu-C20 diacid])CNTATCATQRLAEFLRHSSPNFGAILSSTPVGPETY-NH2 (disulfide 2-7 (inferred))

Each binder was assayed against T2, human calcitonin receptor (assay: cell-based or functional assay).

hCTR funct. EC50 (pM) | Binder
2360 | B1
2830 | K([γGlu-γGlu-C20 diacid])CNTATCATQRLAEFLRHSSPNFGAIPSSTNVGPHTY-NH2 (disulfide 2-7 (inferred))
89600 | B2
1280 | K([γGlu-γGlu-C20 diacid])CNTATCATQRLAEFLRHSSPNFGAILSSTPVGPETY-NH2 (disulfide 2-7 (inferred))
